Measurements from paper PMC3076238, “Improved mycobacterial protein production using a Mycobacterium smegmatis groEL1ΔC expression strain” (BMC Biotechnology, 2011).

Target: AccA3, α-subunit of the acyl-CoA carboxylase AccD5-AccA3 complex (Rv3285) (M. tuberculosis, UniProt P96890 1-600)
Experiment: SEC; […]; 25 mM Tris-HCl pH 8.0, 150 mM NaCl, 1 mM DTT
Conditions: both partners purified

Chain of AccA3, α-subunit of the acyl-CoA carboxylase AccD5-AccA3 complex (Rv3285) (P96890 whole entry, one chain of several): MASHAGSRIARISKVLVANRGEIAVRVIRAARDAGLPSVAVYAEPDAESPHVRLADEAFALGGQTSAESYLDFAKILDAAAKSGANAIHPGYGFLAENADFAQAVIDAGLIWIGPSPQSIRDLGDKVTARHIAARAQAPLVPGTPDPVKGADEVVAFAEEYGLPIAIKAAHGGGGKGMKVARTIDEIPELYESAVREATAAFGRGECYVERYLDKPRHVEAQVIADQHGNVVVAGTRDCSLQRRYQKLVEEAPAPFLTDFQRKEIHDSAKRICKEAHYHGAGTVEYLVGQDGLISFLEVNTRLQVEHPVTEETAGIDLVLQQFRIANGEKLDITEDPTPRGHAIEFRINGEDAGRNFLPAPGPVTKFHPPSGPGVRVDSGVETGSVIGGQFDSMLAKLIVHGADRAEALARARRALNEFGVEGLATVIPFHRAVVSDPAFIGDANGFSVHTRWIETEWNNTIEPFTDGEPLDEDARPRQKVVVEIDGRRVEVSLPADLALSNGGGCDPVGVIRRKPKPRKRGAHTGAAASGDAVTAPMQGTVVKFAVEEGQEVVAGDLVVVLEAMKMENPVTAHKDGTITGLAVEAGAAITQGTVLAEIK

B1: AccD5, β-subunit of the acyl-CoA carboxylase AccD5-AccA3 complex (Rv3280), his-tagged (enzyme)
chain: MTSVTDRSAHSAERSTEHTIDIHTTAGKLAELHKRREESLHPVGEDAVEKVHAKGKLTARERIYALLDEDSFVELDALAKHRSTNFNLGEKRPLGDGVVTGYGTIDGRDVCIFSQDATVFGGSLGEVYGEKIVKVQELAIKTGRPLIGINDGAGARIQEGVVSLGLYSRIFRNNILASGVIPQISLIMGAAAGGHVYSPALTDFVIMVDQTSQMFITGPDVIKTVTGEEVTMEELGGAHTHMAKSGTAHYAASGEQDAFDYVRELLSYLPPNNSTDAPRYQAAAPTGPIEENLTDEDLELDTLIPDSPNQPYDMHEVITRLLDDEFLEIQAGYAQNIVVGFGRIDGRPVGIVANQPTHFAGCLDINASEKAARFVRTCDCFNIPIVMLVDVPGFLPGTDQEYNGIIRRGAKLLYAYGEATVPKITVITRKAYGGAYCVMGSKDMGCDVNLAWPTAQIAVMGASGAVGFVYRQQLAEAAANGEDIDKLRLRLQQEYEDTLVNPYVAAERGYVDAVIPPSHTRGYIGTALRLLERKIAQLPPKKHGNVPL
  binding result: binds
